Assay results: the DeepSol protein solubility set

Test: soluble on expression in E. coli; label from the status in PepcDB or PDB records

| Sequence | soluble on expression in E. coli |
| --- | --- |
| MSLGSVKIVSDLPLQGANRAQTISMVNAIRLAIDQRGGKVAGLKIEYESLDDATAQSGQWDEGKCAENAQQAAQDEEIVGWIGPFNSGCAAVEIPILNEAGLVMISPANTYVGLTKEGGEPDEPDKYYPTGQRNYTRVIPADDKQGRLAAVLMREEGVRTVFILDDRETYGKGLADQVQKSAEEFGIEVVGRQGIDGSASNYRGLMNRVREANPDAIYFGGIIENNAGQLVRDKVGAGMPNDEVLFIGPDGIFVDTFIEQAGDAAEGAYVTFGGIPPERLGERGQRFIEEYNAKYPDDPIQAYTAYAYEAANVLLDAIERAQKADGEVNRENVLREVFATENYKGVLGTWSFDENGDTTLTKLSVQRVQNGEFKLDRVLDVSREGHHHHHH | soluble |
| SVFPQQTGQLAELQPQDRAGARASWMPMFQRRRRRDTHFPICIFCCGCCHRSKCGMCCKT | not soluble |
| SAFPIDLRGQTAFVAGVADSHGYGWAIAKHLASAGARVALGTWPPVLGLFQKSLQSGRLDEDRKLPDGSLIEFAGVYPLDAAFDKPEDVPQDIKDNKRYAGVDGYTIKEVAVKVKQDLGNIDILVHSLANGPEVTKPLLETSRKGYLAASSNSAYSFVSLLQHFGPIMNEGGSAVTLSYLAAERVVPGYGGGMSSAKAALESDTRTLAWEAGQKYGVRVNAISAGPLKSRAASAIGKSGEKSFIDYAIDYSYNNAPLRRDLHSDDVGGAALFLLSPLARAVSGVTLYVDNGLHAMGQAVDSRSMPPLQRATQEIN | soluble |
| MNDGNSRTPYNSLYKPLNLIKSKPDGCCKHNGQCPYGKNQAESVDDGNSRTPYNSIYEPLSLNKSKPDSQCSNGKKPADDEYVNLLLPQSKEEQVAEKLADKLRKLEVKESKGKRRGSKERKKKKPEPVESTYESLASIEGSTNFSGPVTTESLESNVKCHHASQTAYIGVYSSADAEAQVKNRGEFALYHQFEVGNRLDHLTATLPLMLVYYTTTKKHRHYPVRKSGDNGTVQYSVDCGYPIVRKHFSINQLVLYYKTFGSIQMKQEDICSEEFSWWLE | not soluble |
| MGSDKIHHHHHHMNKIINNILNTCKQYTYILPHKLLRQYIAHYTISIPDTSIKENLTLIPDASGCMIFKFDKKGIESAFWGATTKTTIVKNDIENVLFRVFVEFRPGGVYYLTGLSQRESTDLKISLEDFNTLFSLEVNSIFERTSTIKELVEQLDMLFLSYLLKSNIVDMTIPILENARKQNSIMSVKNISQISCYSERHLNRIFNNSLGMSVKSYLRLLRINLVLQEIQNNKIPFATLAQDIGYYDQSHFINDFKSICGVNPTTYIKNLSDFYNEKYKF | not soluble |
| MHHHHHHAIGYVWNTLYGWVDTGTGSLAAANLTARMQPISHHLAHPDTKRRFHELVCASGQIEHLTPIAAVAATDADILRAHSAAHLENMKRVSNLPTGGDTGDGITMMGNGGLEIARLSAGGAVELTRRVATGELSAGYALVNPPGHHAPHNAAMGFCIFNNTSVAAGYARAVLGMERVAILDWDVHHGNGTQDIWWNDPSVLTISLHQHLCFPPDSGYSTERGAGNGHGYNINVPLPPGSGNAAYLHAMDQVVLPALRAYRPQLIIVGSGFDASMLDPLARMMVTADGFRQMARRTIDCAADICDGRIVFVQEGGYSPHYLPFCGLAVIEELTGVRSLPDPYHEFLAGMGGNTLLDAERAAIEEIVPLLADIR | soluble |
| ISISRADLAFDLFEVDCSEFVLEKKGRPTATKEFRSSTGTLETKYLGAPRSEKQVRLYNKKKEQLQNGTDKDKDFASQFKHWWRLEFQLRSRSIDEIFEVIDTIIFKPFNLKGLSIETQIYLTALIHDKNIWKKLHRNTRARYKKILETHQTSDTDYLGLLKDLLKHERPRLENQLAYYGGRIDKNSFQPFC | not soluble |
| MAMAALKDLVEFQLKNAQELVTVLEAEKVAITSRISVDIESIAKQKLTLVNQLQQTDQRIAKHPHVASLTEDTYLNELVSQIRSIIMDCQQANLINGDALARAQLSFNKLNNLMQQSHGKIGMTYSATGKTHTISTLGTNIKA | not soluble |
| MGSDKIHHHHHHDAPLEQALTLAGDNRKELQQVLGHYEGDSLKHKAACFLIENMIGKGTIRYLLRESDSCYIQQEPEPDLTCITADYLIENIDLAFEVWQKYPWCKQLSFREFCRNILPYRLKQEPLDRWRSYYYTRYKMTVDSLARAGATMREIVFFFNSQHGKKYLHDAAKIPGDFSIELIEKLGGGTCDHLALNAVQLMRAVGIPLNLDILPYHGKVNGGHAYNSFTDENGKFFYFSPYEREPERNQWIAPLVQRVCYERQPEPKIGRNRWNTQLVNRLLKEVTDEYYLSDSVRLPVHTSDTVAYIATFNRGAFKVVSQGRVESNSVLHRVLPYGLLYFQMADKKGKLVPTGNPFVMTPDSIHFITPIRQTTVLNGILTYDVKRVLELGYEAYTLYYWKDGWQPVKEVTSKDSRTLDFGEVPVRSLFLVCGNTYMGRMQRPFLLEDGKPVYY | not soluble |
| MTRRVLLLSASVLLATAGYAPEPYYNKYGGYHKALDKKHGGYEADQTGYGGHNGMSDYGNEQGAYGHYDGKYGEAGKKSGQEYYAKGDEHGHGDEAHEKGLKKNGDAYGGKKFSYFTSGSGPYGSYQKGYYGSDGYEHDDHKSKYSSHNEDNGFKKGYDGAGAGHDDKYTSYDKEDAGHKKHHDKYDIGKYGAKQGGYAKQGHEEGWKNEAQKNSYGSRENGQEYGHPYY | not soluble |
| MNKTLIAAAVAGIVLLASNAQAQTVPEGYQLQQVLMMSRHNLRAPLANNGSVLEQSTPNKWPEWDVPGGQLTTKGGVLEVYMGHYMREWLAEQGMVKSGECPPPYTVYAYANSLQRTVATAQFFITGAFPGCDIPVHHQEKMGTMDPTFNPVITDDSAAFSEQAVAAMEKELSKLQLTDSYQLLEKIVNYKDSPACKEKQQCSLVDGKNTFSAKYQQEPGVSGPLKVGNSLVDAFTLQYYEGFPMDQVAWGEIKSDQQWKVLSKLKNGYQDSLFTSPEVARNVAKPLVSYIDKALVTDRTSAPKITVLVGHDSNIASLLTALDFKPYQLHDQNERTPIGGKIVFQRWHDSKANRDLMKIEYVYQSAEQLRNADALTLQAPAQRVTLELSGCPIDADGFCPMDKFDSVLNEAVK | soluble |
| MIMKVGIMSDTHDNLSAIRLAVEFFNREGVNLVLHAGDFVAPFVAKELSNLKAPLKGVFGNNDGEREGLREKLGIKDDILTLNLDGLKVVMLHGTDERVVEAFAKSQLYDIVIRGHTHKYGIQEVGRTIVVNPGEVCGYLTGIKSVALLNTTEREVRIINLKTGEILGIISLLEHHHHHH | not soluble |
| MDSTMSEHADVLIVGGGPVGALAALRLARQGRSVLLLEARAKDAEVRDARALALSWHSRRLLEEAGAWPADLPATAIDTVHVSQQGGCGRTRLDSADLGLPHLGAVVDYPALVAGLGGALEAAGVQVIWQCRVTAVKSLSQYACAEVETPQGKQLLTGSLLVLAEGGALAETLPGIRRLTHDYRQCALLAEVETELPPQGVAYERFAHAGPFALLPHGERYMLVWTRSQADAERLAAADAAVLRDELQQAFGERQGRILSIGPRASFPLALRQANRVTSGRVALIGNAAQTMHPVAAQGLNLGLRDAVGLADALENAADAGDARALKRYADSRKLDSHAVVGFTHGLIKLFDGHHPLMSRLRGVGMTALDALPSLRRKFAGHLVFGVRGLEHHHHHH | soluble |
| MAEVLMYGLSTCPHCKRTLEFLKREGVDFEVIWIDKLEGEERKKVIEKVHSISGSYSVPVVVKGDKHVLGYNEEKLKELIRG | soluble |
| MNRSLANVILGGYGTTSTAGGKPMEISGTHTEINLDNAIDMIREANSIIITPGYGLCAAKAQYPIADLVKMLTEQGKKVRFGIHPVAGRMPGQLNVLLAEAGVPYDIVLEMDEINHDFPDTDLVLVIGANDTVNSAAQEDPNSIIAGMPVLEVWKSKQVIVMKRSLGVGYAAVDNPIFYKPNTAMLLGDAKKTCDALQAKVRESYQK | soluble |
| MQRKGDTPATLDLFADQTPQPRRDEQIGPGSWLFSGFALPAMPTLLLALEQTLGHSPFRHMLTPGGLSMSAALSSCGPLGWITDRHGYRYSDVDPQTGQPWPAMPDAFMQLAQSAALAAGYRGFVPDACLINRYIPGAKMSLHQDKDEHDHRWPVVSVSLGIPAIFQFGGMQRSDKTRRISLFHGDVVVWGGEDRLRFHGILPIKQAEHPLLGEQRINLTFRKAGRDSLEHHHHHH | soluble |
| MGSDKIHHHHHHMGGIWMSSAKTLEEVISKISGVISAKVIEEDGQPREIHVIADPSRNPKQIVRDIETVALASLGMKIDRRIISVAQLSQGRFPSSQTYEITSIEVKNLDRKKQVKVTIHNPLEDEDMVGESAGPGTSTNLPRLVGEAVIEAFNPDCPVSVDDVQKVFLAGREFVLVHLTIQDEDRERTEVGVAPLEGDFLKSVATATLKVVKDLT | not soluble |
| MAGDPMSATETITTNARVLGADPLVKDGFGEEDMLTLVLPYIKTAREGVLRLGELLETYGTYESNGIAFADTEEIWWLKTIGGHNWIARRVPDDAYVTNPNQLGIDHYEFENPDDYLASPDIRDFINKHHLDLTYSNEHFNPRYAFGSQRDKDHHYNTPRARAMLEHHHHHH | not soluble |
| MGSDKIHHHHHHMILFAGDPHGSYSHLYPFIQEHANVSLIILGDLQLTTSDELDKLAQFCDLWFIHGNHDSKTVSAYEALWGTKWKSRNLHGKVVDIQGIKIAGLGGVFRGQIWMPPNKPLFFDHIHYCQYAPPEKIWRGGIPLRHRTSIFPSDIEALEKQKADILICHEAPKPHPLGFSVINNLATSMQVKHIFHGHHHESFDYTKRPNKNPFKITNVGFRSLCNINGNFLLIGIDDRE | not soluble |
| MGSDKIHHHHHHMKESLRREYAPVKDLKPDDHIKMVQDIFSTITGKYDFLNHLLSFRRDVAWRRFAARKMHFSVTRRYLDVATGTADLALEVARRYPEVQVIGVDFVLEMLEKAVEKSARRDKIRDRVHFVQADALALPFADASFDVVGIAFGIRNIPGRLGALREFSRVLVDGGQVVVLEMQSPEQKMLRPLCTFYLRHVLPRLARRFTRNPAAYLYLADSILHFPSSDRFSGMMRDAGFADVRNYPLTLGITRLYVGRKGQ | not soluble |
| MRMKALLIDYGSGNLRSAAKALEAAGFSVAVAQDPKAHEEADLLVLPGQGHFGQVMRAFQESGFVERVRRHLERGLPFLGICVGMQVLYEGSEEAPGVRGLGLVPGEVRRFRAGRVPQMGWNALEFGGAFAPLTGRHFYFANSYYGPLTPYSLGKGEYEGTPFTALLAKENLLAPQFHPEKSGKAGLAFLALARRYFEVL | soluble |
| MRGSHHHHHHGSACMKRQGASSERKRARIPSGKAGAANGFLMEVCVDSVESAVNAERGGADRIELCSGLSEGGTTPSMGVLQVVKQSVQIPVFVMIRPRGGDFLYSDREIEVMKADIRLAKLYGADGLVFGALTEDGHIDKELCMSLMAICRPLPVTFHRAFDMVHDPMAALETLLTLGFERVLTSGCDSSALEGLPLIKRLIEQAKGRIVVMPGGGITDRNLQRILEGSGATEFHCSARSTRDSGMKFRNSSVAMGASLSCSEYSLKVTDVTKVRTLNAIAKNILV | soluble |
| MGSDKIHHHHHHMAQQKPHDVNEPSRRRLLKGIGALGGALAITGGCPVAHAAKAESSPGTLTPDARQEKQPFYGRHQAGILTPQQASMMLVAFDVLAADKADLERLFRLLTQRIAFLTQGGPAPDTPNPRLPPMDSGILGPWIAPDNLTITVSVGHSLFDERFGLADKAPKKLQPMTRFPNDSLDAALCHGDLLLQICANTQDTVIHALRDVIKHTPDLLSVRWKREGFISDSAARSKGKETPINLLGFKDGTANPASHDSALMDKVVWVTADQDEPAWTVGGSYQAARIIQFHVEFWDRTPLKEQQTIFGRDKHTGAPLGMKNEHDTPDYSKDPNGEVIALDSHIRLANPRTPETQSSLMMRRGYSYSLGVTNAGQLDMGLLFVCYQHDLEKGFLTVQKRLNGEALEEYVKPIGGGYFFVLPGVVDEKHYLGESLLQA | not soluble |
